# In patent publication US20170281792A1 (Genentech, published 2017):
# Changes are numbered by the printed parent chain.
# T1: gD epitope-tagged rat mesothelin expressed on cells (rat, UniProt Q9ERA7 298-582)
# T1 sequence: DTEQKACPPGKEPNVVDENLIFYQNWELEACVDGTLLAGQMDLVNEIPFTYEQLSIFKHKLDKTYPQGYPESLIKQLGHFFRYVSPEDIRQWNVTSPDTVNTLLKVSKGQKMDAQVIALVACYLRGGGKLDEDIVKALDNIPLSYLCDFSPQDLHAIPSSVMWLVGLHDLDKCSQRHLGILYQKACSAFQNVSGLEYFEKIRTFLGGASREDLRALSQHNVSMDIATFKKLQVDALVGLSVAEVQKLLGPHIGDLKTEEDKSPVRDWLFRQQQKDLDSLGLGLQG
# T2: gD epitope-tagged cynomolgus monkey mesothelin expressed on cells (construct #383) (cynomolgus monkey)
# T2 construct: also called cyno mesothelin
# T2 chain: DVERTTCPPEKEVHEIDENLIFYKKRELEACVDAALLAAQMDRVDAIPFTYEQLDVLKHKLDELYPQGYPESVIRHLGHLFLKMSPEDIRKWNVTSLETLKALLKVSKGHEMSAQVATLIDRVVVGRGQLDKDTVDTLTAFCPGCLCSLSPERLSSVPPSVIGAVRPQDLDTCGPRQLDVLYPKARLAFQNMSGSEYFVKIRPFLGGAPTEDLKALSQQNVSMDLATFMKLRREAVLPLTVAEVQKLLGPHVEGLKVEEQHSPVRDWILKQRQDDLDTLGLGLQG
# T3: gD epitope-tagged mouse mesothelin expressed on cells (construct #385) (mouse, UniProt Q61468 298-582)
# T3 sequence: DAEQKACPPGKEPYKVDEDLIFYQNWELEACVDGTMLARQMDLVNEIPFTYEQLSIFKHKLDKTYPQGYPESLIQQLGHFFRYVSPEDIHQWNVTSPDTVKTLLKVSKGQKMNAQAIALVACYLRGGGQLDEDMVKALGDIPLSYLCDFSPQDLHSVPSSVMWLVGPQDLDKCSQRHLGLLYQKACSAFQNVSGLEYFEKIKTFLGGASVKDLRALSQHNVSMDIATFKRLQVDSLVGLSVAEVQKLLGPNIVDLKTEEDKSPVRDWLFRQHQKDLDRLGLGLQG
# T4: endogenous rat mesothelin on the normal pleural cell line 4/4-RM4 (rat, UniProt Q9ERA7 298-582)
# T4 sequence: T1 sequence
# B1: 7D9.v5 (antibody, V domains shown)
# VH: EVQLVESGGGLVQPGGSLRLSCAASGYTFTTYWMHWVRQAPGKGLEWVGYIRPSTGYTEYNQKFKDRFTISADTSKNTAYLQMNSLRAEDTAVYYCARSRWLLDYWGQGTLVTVS
# VL: DIQMTQSPSSLSASVGDRVTITCKSSQSVLYSSNQKNYLAWFQQKPGKAPKLLIYWASTRESGVPSRFSGSGSGTDFTLTISSLQPEDFATYYCHQYLSSYTFGQGTKVEIK
# B2: 7D9.v1 (antibody, V domains shown)
# VH: B1 VH
# VL: B1 VL with F42Y
# notes: also called direct-graft 7D9.v1
# B3: 7D9.v6 (antibody, V domains shown)
# VH: B1 VH
# VL: B1 VL with F42Y, Y93F
# B4: chimeric 7D9 (antibody, V domains shown)
# VH: QVQLQQSGAELAKPGASVKMSCKASGYTFTTYWMHWVKQRPGQGLEWIGYIRPSTGYTEYNQKFKDKATLTADKSSSTAYMQLSSLTSEDSTVYYCARSRWLLDYWGQGTSLTVS
# VL: DIMMTQSPSSLAVSAGEKVTMSCKSSQSVLYSSNQKNYLAWFQQKPGQSPKLLIYWASTRESGVPDRFTGSGSGTDFTLTISSVQAEDLAVYFCHQYLSSYTFGGGTKVEIK
# notes: also called ch7D9; mu7D9 (formatted as a chimeric 7D9)
# B5: 22A10 graft (antibody, V domains shown)
# VH: EVQLVESGGGLVQPGGSLRLSCAASGFTFSDYFMSWVRQAPGKGLEWVATISNGGTYTYYPDSVKGRFTISRDNSKNTLYLQMNSLRAEDTAVYYCARFDGYYFDYWGQGTLVTVSS
# VL: DIQMTQSPSSLSASVGDRVTITCRASQDISNYLNWYQQKPGKAPKLLIYYTSRLHSGVPSRFSGSGSGTDFTLTISSLQPEDFATYYCQQGNTLPYTFGQGTKVEIK
# notes: also called hu22A10graft; 22A10 CDR graft
# B6: humanized monoclonal antibody 22A10.v83 (antibody, V domains shown)
# VH: B5 VH with Y103I
# VL: DIQMTQSPSSLSASVGDRVTITCRASQDISNYLNWYQQKPGKAPKLLIYYTSRLHSGVPSRFSGSGSGTDFTLTISSLQPEDFATYYCQQGNTLPYTFGQGTKVEIKR
# notes: also called h22A10.v83; hu22A10.v83
# Tests used:
# [1] = target: T5, E. coli derived recombinant human mesothelin (human, UniProt Q13421 296-580); assay: Biacore-2000, IgG over immobilised E. coli derived human mesothelin, 1:1 fit
# T5 construct: not shown: N-terminal unizyme His (HQ)-tag
# Protocol: (§1) 7D9 variants were expressed as IgG by CHO transient transfection. IgG was purified with protein G affinity chromatography. The affinity of each 7D9 IgG variant for human mesothelin was determined by surface plasmon resonance using a BIACORE™-2000. BIACORE™ research grade CM5 chips were immobilized with approximately 110 RU of E. coli derived recombinant human mesothelin using the amine coupling kit from BIACORE™. […] Each sample was analyzed with 5-minute association and 3.5-minute dissociation. After each injection the chip was regenerated using 10 mM Glycine pH 1.7. Binding response was corrected by subtracting the RU from a flow cell with an irrelevant IgG immobilized at similar density. A 1:1 Languir model of simultaneous fitting of kₒₙ and koff was used for kinetics analysis.
# [2] = target: T5, E. coli derived recombinant human …; assay: SPR (Biacore), IgG over immobilized E. coli derived human mesothelin
# Protocol: as §1
# The human acceptor framework used for humanization of 7D9 is based on the human VL kappa I consensus (VLKI) and the acceptor VH framework VHATA, which differs from the human VH subgroup III consensus (VHIII) at 3 positions: R71A, N73T, and L78A (Carter et al., Proc. Natl. Acad. Sci. USA 89:4285 (1992)). The VL and VH domains of murine 7D9 were aligned with the human VLKI and VHIII domains; hypervariable regions were identified and grafted into the human acceptor framework to generate 7D9.v1 (FIGS. 4 and 5).
# [3] = target: T1, gD epitope-tagged rat mesothelin …; assay: Scatchard analysis on BJAB cells stably expressing gD-tagged rat mesothelin
# [4] = target: T2, gD epitope-tagged cynomolgus monkey …; assay: Scatchard analysis on BJAB cells stably expressing gD-tagged cyno mesothelin
# [5] = target: T2, gD epitope-tagged cynomolgus monkey …; assay: Scatchard analysis (125I-labelled antibody), row 'Cyno HT1080', stably transfected cells
# Protocol: (§2) The data was analyzed with non-linear regression curve fitting in the New Ligand program (Genentech, Inc., South San Francisco, Calif.) to estimate Kd values (Munson et al., Anal. Biochem., 107 220-239 (1980)).
# [6] = target: T1, gD epitope-tagged rat mesothelin …; assay: Scatchard, 125I-labelled antibody on stably transfected 293 cells
# Protocol: as §2
# [7] = target: T6, gD epitope-tagged human mesothelin expressed on cells (construct #387) (human, UniProt Q13421 296-580); assay: as above
# T6 construct: also called gD-human mesothelin; gD-tagged human mesothelin
# Protocol: as §2
# [8] = target: T7, human mesothelin on cells (endogenous on tumour cell lines and tissue, or stably expressed on A431 or HT1080 … (human, UniProt Q13421 296-580)); assay: Scatchard analysis (125I-labelled antibody) on HPAF-II cells, endogenous mesothelin
# T7 construct: also called endogenous mesothelin; endogenous human mesothelin
# Protocol: as §2
# [9] = target: T3, gD epitope-tagged mouse mesothelin …; assay: FACS on stably transfected 293 cells
# Protocol: Monoclonal antibodies were tested to determine if they cross-react with mesothelin from species other than human. […] Shaded residues are identical between at least two species. Unshaded residues differ between at least two of the four species. […] Anti-gD staining verified that mouse mesothelin was indeed expressed.
# [10] = target: T7, human mesothelin on cells (endogenous …); assay: Scatchard analysis (125I-labelled antibody) on OvCar3x2.1 cells, endogenous mesothelin
# Protocol: as §2
# [11] = target: T7, human mesothelin on cells (endogenous …); assay: Scatchard analysis (125I-labelled antibody) on Capan2 cells, endogenous mesothelin
# Protocol: as §2
# [12] = target: T2, gD epitope-tagged cynomolgus monkey …; assay: Scatchard analysis (125I-labelled antibody), row 'Cyno 293', stably transfected cells
# Protocol: as §2
# [13] = target: T6, gD epitope-tagged human mesothelin …; assay: Scatchard, 125I-labelled antibody on stably transfected HT1080 cells
# Protocol: as §2
# [14] = target: T1, gD epitope-tagged rat mesothelin …; assay: Scatchard, 125I-labelled antibody on stably transfected BJAB cells
# Protocol: as §2
# [15] = target: T6, gD epitope-tagged human mesothelin …; assay: as above
# Protocol: as §2
# [16] = target: T7, human mesothelin on cells (endogenous …); assay: Scatchard analysis (125I-labelled antibody) on AsPC1 cells, endogenous mesothelin
# Protocol: as §2
# [17] = target: T7, human mesothelin on cells (endogenous …); assay: Scatchard analysis (125I-labelled antibody) on HPAC cells, endogenous mesothelin
# Protocol: as §2
# [18] = target: T2, gD epitope-tagged cynomolgus monkey …; assay: Scatchard analysis (125I-labelled antibody), row 'Cyno BJAB', stably transfected cells
# Protocol: as §2
# [19] = target: T7, human mesothelin on cells (endogenous …); assay: Scatchard; endogenous human mesothelin on cell lines
# Protocol: as §2
# [20] = target: T7, human mesothelin on cells (endogenous …); assay: Scatchard analysis (125I-labelled antibody) on OvCar3 cells, endogenous mesothelin
# Protocol: as §2
# [21] = target: T4, endogenous rat mesothelin on the normal …; assay: Scatchard on the normal rat pleural cell line 4/4-RM4
# Protocol: as §2
# T7 sequence (Q13421 other isoform, or with tags, fused parts or gaps): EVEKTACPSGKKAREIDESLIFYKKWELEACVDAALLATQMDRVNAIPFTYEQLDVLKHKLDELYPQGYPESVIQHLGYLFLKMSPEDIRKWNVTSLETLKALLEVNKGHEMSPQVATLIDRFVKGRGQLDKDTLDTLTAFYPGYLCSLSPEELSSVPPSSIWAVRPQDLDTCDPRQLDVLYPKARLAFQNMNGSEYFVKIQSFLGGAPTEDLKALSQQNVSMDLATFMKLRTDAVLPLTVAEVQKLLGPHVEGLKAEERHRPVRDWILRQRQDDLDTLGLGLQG
# T6 sequence (Q13421 other isoform, or with tags, fused parts or gaps): as above
# T5 sequence (Q13421 other isoform, or with tags, fused parts or gaps): as above
binder,measurement,setting,value
B1,Kd,[1],3.49 nM
B2,fold decrease in affinity relative to mu7D9 (chimeric 7D9),[2],~2 fold
same,Kd,[1],3.98 nM
B3,Kd,[1],4.08 nM
B4,Kd,[1],1.84 nM
B5,Kd,[3],1.9 nM
same,Kd,[4],1 nM
B6,Kd,[5],6.4 nM
same,Kd,[6],7.3 nM
same,Kd,[7],2.7 nM
same,Kd,[8],10.4 nM
same,binding result,[9],no binding (tested: 10 µg/ml)
same,Kd,[10],9 nM
same,Kd,[11],4.2 nM
same,Kd,[12],4.3 nM
same,Kd,[13],6.2 nM
same,Kd,[14],2.7 nM
same,Kd,[15],1.8 nM
same,Kd,[16],9.3 nM
same,Kd,[17],9.4 nM
same,Kd,[4],1.3 nM
same,Kd,[18],1.3 nM
same,Kd,[19],9 to 10 nM
same,Kd,[20],9.2 nM
same,Kd,[21],6.2 nM
